Measurements reported in patent US6221617A, “Bioassay for growth hormone releasing hormone” (priority 1997, dated 2001).
pEC50: −log10 of the molar value. Where two headings read alike, the source gives them in different places.

Experiments:
[1] = biological target: T1, porcine GHRH receptor (Sus scrofa, UniProt P34999); assay: SEAP reporter expression in pGHRHr/293 cells transiently transfected with pha180SEAP; type: cell-based; design: host or cells: human fetal kidney 293 cells (pGHRHr/293), stably expressing, G418-selected; conditions: transiently transfected pGHRHr/293 cells, 6 hours
T1 sequence (P34999 23-423): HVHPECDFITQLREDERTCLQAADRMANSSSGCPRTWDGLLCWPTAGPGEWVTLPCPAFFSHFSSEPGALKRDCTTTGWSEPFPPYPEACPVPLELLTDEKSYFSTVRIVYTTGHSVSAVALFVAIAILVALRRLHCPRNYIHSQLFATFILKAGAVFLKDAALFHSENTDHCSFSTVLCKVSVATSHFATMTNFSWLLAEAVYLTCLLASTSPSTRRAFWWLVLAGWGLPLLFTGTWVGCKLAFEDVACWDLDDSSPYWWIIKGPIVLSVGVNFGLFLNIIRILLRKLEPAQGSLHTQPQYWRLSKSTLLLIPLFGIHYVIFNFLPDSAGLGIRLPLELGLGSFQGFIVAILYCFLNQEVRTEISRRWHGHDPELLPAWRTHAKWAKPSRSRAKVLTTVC
Experimental: Samples were allowed to set for 5 minutes.
The efficacy of the cAMP-responsive promoter was evaluated by transient transfection assays using 293 and pGHRHr/293 cells. Transiently transfected 293 cells were stimulated with 1 mM 8-bromo cAMP for 20 hours, while pGHRHr/293 cells were stimulated with various concentrations of recombinant human GHRH for 6 hours.
The ability of GHRH to stimulate the expression of the SEAP reporter cDNA was evaluated using pGHRHr/293 cells transiently transfected with pha180SEAP. Cells were incubated with various doses of GHRH(1-44)NH2 (10^-10 to 10^-6 M) for 6 hours and media was then assayed for SEAP activity.

[2] = biological target: T1, porcine GHRH receptor; assay: cAMP accumulation assay of the pGHRHr/293 cell line; type: cell-based; design: host or cells: human fetal kidney 293 cells (pGHRHr/293), stably expressing, G418-selected; conditions: pGHRHr/293 cells, 45 minutes, 10^-12 to 10^-6 M
Experimental: The media was then replaced with DME containing 0.1% BSA and 0.1 mM 3-isobutyl-1-methyl-xanthine. Doses of recombinant human GHRH (1-44)NH2 doses, 1×10^-6 M to 1×10^-12 M, were added and the cells were incubated for 45 minutes at 37° C. They were lysed in 60% ethanol and cAMP levels were quantitated by an immunoassay kit (Amersham). After performing the cAMP EIA, data was analyzed using Fourfit, a four parameter logistic curve fitting program.
(§1) Predicted variances in SEAP responses=0.32×(Y)^154.

[3] = biological target: T1, porcine GHRH receptor
Experimental: Assays for secreted alkaline phosphatase (SEAP) were performed using the chemiluminescent substrate in the Great Escape Detection Kit (Clontech). Culture medium was centrifuged at 14000 rpm in a microfuge centrifuge to remove cell debris. One hundred microliters of culture medium was then added to 300 ul of dilution buffer and heated at 65 C. for 30 minutes. Samples were cooled to room temperature and 100 ul of diluted sample was added to 100 ul of assay buffer. Samples were allowed to set for 5 minutes. One hundred microliters of the CSPD substrate solution was then added to each sample, incubated in the dark for 10 minutes and read on a Wallac LKB 1251 tube luminometer.
A stable transfection was performed in pGHRHr/293 cells using the cAMP-responsive SEAP reporter construct, pha180SEAPpur and stable transfectants were selected on the basis of puromycin resistance. pha180SEAPpur was transfected into pGHRHr/293 cells at 1, 2, 4, 8 and 16 ug/ml Opti-MEM using 8 ul of Lipofectin/ml in six well culture plates. After six hours, 1 ml of 20% fetal calf serum in DME (high glucose) was added to the cells. Twenty-four hours post-transfection the cells were subcultured 1:18 and were incubated in 250 ug/ml G418. Forty-eight hours post-transfection the media was replaced with selectable medium containing 250 ug/ml G418 and 1 ug/ml puromycin. Cells were incubated for three weeks and picked using Trypsin-EDTA treated Whatman 3MM paper and placed in 24 well plates. Upon growing stable isolates to confluency in T75 cm^2 culture flasks, pGHRHr/SEAP/293 cells were removed from flasks, plated in 24 well plates at 1×10^5 cells/well and stimulated with various doses of recombinant human GHRH (1-44)NH2. Media was collected and assayed for secreted placental alkaline phosphatase. Time course studies were performed over a 20 hour period to determine the optimal time to remove media samples from the tissue cultures during stimulation with GHRH. Comparisons of synthetic and recombinant human GHRH (1-44)NH2 (10^-13 to 10^-7 M) were also made. Data was analyzed using FOURFIT and ALLFIT, four parameter logistic curve fitting programs.
Sigmoidal dose response curves were fit by four parameter logistic curve fitting using FOURFIT (Grotjan and Steinberger, 1977), with multiple curves being compared using ALLFIT (DeLean et al.,1978). […] For cAMP and SEAP bioassays, a weighted regression analysis was performed with weights assigned as the reciprocal of predicted variance.

[4] = test system: rat anterior pituitary cell cultures; assay: Rat primary anterior pituitary cell bioassay (GH release, radioimmunoassay); type: cell-based
Experimental: Rat anterior pituitary cell cultures were prepared for measuring the biological activity of GHRH, GHRH-induced release of GH was quantified using radioimmunoassay. Anterior pituitaries from fifteen female Sprague-Dawley rats were placed in a solution of Gey's media supplemented with 1% BSA, 0.25% glucose, and 0.2 mM MEM non essential amino acids at pH 7.4. Cell dispersion was performed in a solution of 400 U/ml trypsin in supplemented Gey's media for 30 minutes, 1750 KU/ml DNase-I in supplemented Gey's media for 5 minutes, and cells were triturated 15-30 times in 0.6 mg/ml lima bean trypsin inhibitor in supplemented Gey's media. Cells were filtered thru 160 u and 100 u mesh and centrifuged for 3 minutes at 1100 RPM and 12 minutes at 1600 rpm. Cell pellet was suspended at 3×10^5 cells/ml in DMEM supplemented with 10% fresh rat serum, 3% horse serum, 2.5% fetal calf serum, 2% Antibiotic-Antimycotic, 0.3% Fungizone, 0.45% glucose, 25 mM Hepes, 4 mM glutamine, 1 mM sodium pyruvate, 1 nM 3,3',5-triiodo-L -thyronine (T3), 100 nM dexamethazone and 10 uM MEM non essential amino acids. Cells were plated at 1 ml/well in 24 well plates and incubated at 8% CO2 at 37 C. for 68-72 hours. To stimulate cells with hormones, cells were washed three times in Gey's media supplemented with 1% BSA, 0.45% glucose and 25 mM Hepes. GHRH (1-44)NH2 was added to cells in 1 ml of supplemented Gey's media and cells were incubated for 3 hours before collecting media. Rat growth hormone levels were quantitated using a radioimmunoassay kit (Amersham).
as §1

[5] = pGHRHr/SEAP/293 cells, 16 hour incubation
[6] = primary rat pituitary cell cultures, 3 hours

Substance	increase in the expression of the reporter protein (SEAP) ([1]; 10^-10 to 10^-6 M)	ED50 of SEAP reporter expression [1]	calculated ED50 of increase in intracellular cAMP concentration [2]	calculated ED50 of SEAP dose-response curves ([3]; after 12, 14, 16 and 18 hours of exposure, not significantly different)	SEAP activity increase over the 12-16 hour time points ([3]; at 18 hours)	SEAP activity increase over the 12-16 hour time points ([3]; at 20 hours)	increase in SEAP activity ([3]; pGHRHr/SEAP/293 #815-4, between 12 and 18 hours of exposure)	calculated ED50 of SEAP expression [3, 5]	increase in SEAP expression ([3]; pGHRHr/SEAP/293 cells, 16 hour incubation, 10^-13 to 10^-7 M)	potency relative to synthetic GHRH (times as potent) ([3]; pGHRHr/SEAP/293 reporter bioassay, p<0.0001)	ED50 of GH secretion [4, 6]	increase in GH secretion into the medium [4, 6]	potency relative to synthetic GHRH (times as potent) ([4]; rat pituitary bioassay)	increase in SEAP expression ([3]; human, pghrhr/seap/293 cells, 16 h)	minimal detectable dose [3, 5]	pEC50 ([3]; read-out: calculated ED50 of SEAP expression, pGHRHr/SEAP/293 cells, 16 hour incubation)	pEC50 ([4]; primary rat pituitary cell cultures, 3 hours, read-out: ED50 of GH secretion)
recombinant human GHRH (1-44)NH2: Recombinant human GHRH(1-44)NH2 obtained from BioNebraska, Inc. as a powder	2.5 fold	0.51 nM	8.4±3.6×10^-9 M	0.261 nM	1.3 fold	1.7 fold	4.8 fold	4.26±0.28×10^-11 M	9.1 fold	1.83±0.13 times	2.16±1.04×10^-10 M	3.1 fold	1.69±0.67 times	–	–	–	–
synthetic human GHRH (1-44)NH2: Synthetic human GHRH(1-44)NH2 purchased from Peninsula; reference preparation [reference compound]	–	–	–	–	–	–	–	–	–	–	–	–	–	9.1 fold	1.47 pM	10.11	9.44
